According to US20090148466A1, “Process for the Preparation of Hypoallergenic Mosaic Antigens” (BIOMAY AG, priority 2003, published 2009):
Values belong to the molecule of their own block, whether it stands above or below them.

Columns and labels:
[1] = test system: grass pollen allergic patients; assay: Skin prick test (immediate type skin reactions); conditions: standardized skin prick solution
Protocol: SPTs (skin prick tests) were performed on the individuals' forearms. Twenty microliter aliquots containing 5 concentrations of rPhl p 2 and of Phl p 2-derived mosaic P2M (1 μg/ml, 2 μg/ml, 4 μg/ml, 8 μg/ml, 16 μg/ml) were applied. In addition, standardized skin prick solutions (timothy grass pollen extract and histamine) (Allergopharma, Reinbeck, Germany) were tested. Reactions were recorded 20 minutes after SPT by photography and by transferring the ballpoint pen-surrounded wheal area with a scotch tape to paper. The mean wheal diameter (Dm) was calculated by measuring the maximal longitudinal and transversal diameter and dividing their sum by 2 as described by Focke et al., 2001.

[2] = Characteristics of Phl p 2-derived synthetic peptides (isoelectric point); type: physicochemical
Excerpt: Table 1: Characteristics of Phl p 2-derived synthetic peptides. […] Peptide 1 corresponds to SEQ ID NO:3, Peptide 3 corresponds to SEQ ID NO:4 and Peptide 2 corresponds to SEQ ID NO:5.

[3] = test system: IgE antibodies in sera from grass pollen allergic patients; assay: IgE reactivity by dot blot with sera from grass pollen allergic patients; type: binding, human; conditions: for IgE binding capacity (dot blot): sera from 12 timothy grass pollen allergic patients
Protocol: The allergenic activity of the Phl p 2-derived peptides was evaluated by comparing the IgE-reactivity of complete rPhl p 2 with the peptides by dot blot analysis (FIG. 1). Nitrocellulose-dotted Phl p 2-derived peptides (P1-P3), an immunologically unrelated major grass pollen allergen, rPhl p 5 (Vrtala S, Sperr W R, Reimitzer I, van Ree R, Laffer S, Müller WD, Valent P, Lechner K, Rumpold H, Kraft D, Scheiner 0, Valenta R. cDNA cloning of a major allergen from timothy grass (Phleum pratense) pollen; characterization of the recombinant Phl p V allergen. J. Immunol. 1993, 151: 4773-4781), and for control purposes, human serum albumin as well as a control peptide were exposed to sera from grass pollen allergic patients and to serum from a non-allergic individual.
Bound IgE antibodies were detected as described previously (Valenta R, Duchêne M, Ebner C, Valent P, Sillaber C, Deviller P, Ferreira F, Tejkl M, Edelmann H, Kraft D, Scheiner O. Profilins constitute a novel family of functional plant pan-allergens. J. Exp. Med. 1992, 175: 377-385).
(§1) The IgE binding capacity of purified Phl p 2 mosaic (P2M) was compared with that of Phl p 2 wildtype by dot blot experiments as described for the peptides using sera from twelve timothy grass pollen allergic patients (FIG. 7). […] Basophils from a grass pollen allergic patient were enriched by dextran sedimentation and exposed to increasing concentrations of purified rPhl p 2 or rPhl p 2 mosaic as described (Valent P, Besemer J, Muhm M, Majdic O; Lechner K, Bettelhei P. Interleukin 3 activates human blood basophils via high-affinity binding sites. Proc. Natl. Acad. Sci. USA 1989, 86: 5542-5546).

[4] = test system: Basophils from a grass pollen allergic patient; assay: Basophil histamine release; type: cell-based, human
Excerpt: as §1
Histamine released in the cell free supernatants was determined in triplicates by radioimmuno assay and is expressed as mean percentage of the total histamine content of the cells as described by Valent et al.

[5] = test system: serum IgE; conditions: cited from earlier work

mean wheal diameter ([1]; Individual 1): 8 mm
mean wheal diameter ([1]; Individual 2): 8 mm
Molecule: NCCc1c[nH]cn1 [Histamine, histamine]

Molecule: Peptide 3: synthetic Phl p 2-derived peptide; Table 1 prints aa 34-64, SEQ ID NO:5; text says aa 65-96 (CFRFLTEKGMKNVFDDVVPEKYTIGATYAPEE) [synthetic Phl p 2-derived peptide; text says aa 65-96]
Isoelectric point [2]: 4.45

Molecule: Peptide 2: synthetic Phl p 2-derived peptide; Table 1 prints aa 65-96, SEQ ID NO:4; text says aa 34-64 (REHGSDEWVAMTKGEGGVWTFDSEEPLQGPFNC) [synthetic Phl p 2-derived peptide; text says aa 34-64]
Isoelectric point [2]: 4.03

B1: P2M: recombinant his-tagged mosaic protein: the three Phl p 2-derived peptides recombined in altered order 1, 3, 2 (SEQ ID NO:1) (protein)
chain: MVPKVTFTVEKGSNEKHLAVLVKYEGDTMAEVELFRFLTEKGMKNVFDDVVPEKYTIGATYAPEEREHGSDEWVAMTKGEGGVWTFDSEEPLQGPFNHHHHHH
modifications: His tag
IgE binding capacity (dot blot) [3]: no serum exhibited IgE reactivity
reduced allergenic activity compared to the rPhl p 2 allergen ([4]; basophil histamine release): more than 1000 fold

B2: rPhl p 2: recombinantly produced wild type timothy grass pollen allergen Phl p 2, his-tagged (protein)
chain: MVPKVTFTVEKGSNEKHLAVLVKYEGDTMAEVELREHGSDEWVAMTKGEGGVWTFDSEEPLQGPFNFRFLTEKGMKNVFDDVVPEKYTIGATYAPEEHHHHHH
share of grass pollen allergic individuals whose serum IgE reacts [5]: about 70%
IgE reactivity (dot blot) ([3]; nitrocellulose-dotted, sera from 35 grass pollen allergic patients): Sera from all 35 grass pollen allergic patients showed IgE reactivity
IgE binding capacity (dot blot) [3]: Sera from all 12 grass pollen allergic patients contained IgE antibodies against rPhl p 2
concentration of maximal histamine release ([4]; basophils from a grass pollen allergic patient): 10^−3 μg/ml
